Source: publication PMC6755811

What was measured:
[1] = target: HER2-binding monomeric IgA1 with Man3GlcNAc2 (MM) N-glycans (human); test: SPR; Biacore T200; IgA glycoforms captured on a Protein L chip, FcαRI glycoforms injected in single-cycle kinetics at five concentrations (31.5 to 500 nM); 1x PBS, 0.05% Tween, 0.1% BSA; 1:1 binding model; average of four independent experiments
[2] = target: HER2-binding monomeric IgA2m(2) with sialylated (NaNa) N-glycans (human); test: as above
[3] = target: HER2-binding monomeric IgA2m(2) with Man3GlcNAc2 (MM) N-glycans (human); test: as above
[4] = target: HER2-binding monomeric IgA1 with terminally sialylated (NaNa) N-glycans (human); test: as above
[5] = target: HER2-binding monomeric IgA2m(2) with heterogeneous complex N-glycans (human); test: ITC; 10 μM IgA in the cell titrated with 160 μM FcαRI from the syringe; PBS pH 7.4, 25 °C, 19 injections
[6] = target: HER2-binding monomeric IgA1 with heterogeneous complex N-glycans, produced in HEK293F cells (human); test: ITC; 10 μM IgA in the sample cell titrated with 160 μM FcαRI; 25 °C; PBS, pH 7.4
[7] = target: HER2-binding monomeric IgA2m(2) with complex N-glycans (human); test: as above
[8] = target: HER2-binding monomeric IgA1 with mostly biantennary GlcNAc2Man3GlcNAc2 (GnGn) complex N-glycans (human); test: SEC-MALS; SE-HPLC-MALS, Superdex 200 10/300 GL; IgA mixed with the receptor in a molar ratio of 1:4 starting from 25 μg of IgA
[9] = target: HEK293F-produced IgA1-Fc deletion protein lacking the Fab domain (human); test: as above
Chain of HEK293F-produced IgA1-Fc deletion protein lacking the Fab domain (human) (P01876 1-364, stated change not applied): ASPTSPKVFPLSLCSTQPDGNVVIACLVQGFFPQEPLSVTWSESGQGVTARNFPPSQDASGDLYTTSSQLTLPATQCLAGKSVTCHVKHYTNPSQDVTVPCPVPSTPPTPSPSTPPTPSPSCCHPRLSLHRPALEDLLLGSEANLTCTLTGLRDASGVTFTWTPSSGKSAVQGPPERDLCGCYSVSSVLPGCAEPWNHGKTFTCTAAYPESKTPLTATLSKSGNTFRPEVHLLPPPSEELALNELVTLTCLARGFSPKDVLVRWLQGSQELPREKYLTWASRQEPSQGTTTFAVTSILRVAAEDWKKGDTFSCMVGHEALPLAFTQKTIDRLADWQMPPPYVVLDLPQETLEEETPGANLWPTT

Substance	Kd [1] [nM]	koff [1] [s⁻¹]	kon [1] [M⁻¹ s⁻¹]	Kd [2] [nM]	koff [2] [s⁻¹]	kon [2] [M⁻¹ s⁻¹]	Kd [3] [nM]	koff [3] [s⁻¹]	kon [3] [M⁻¹ s⁻¹]	Kd [4] [nM]	koff [4] [s⁻¹]	kon [4] [M⁻¹ s⁻¹]	Kd [5] [nM]	stoichiometry N [5]	stoichiometry N (FcαRI per IgA) [6]	stoichiometry N (FcαRI per IgA) [7]	stoichiometry N (FcαRI per IgA) [8]	stoichiometry N (FcαRI per IgA1-Fc) [9]
extracellular domain of human FcαRI with single GlcNAc residues at each N-glycosylation site (from UniProt P24071 22-227) (receptor)	25.2	0.05	1.9e+06	25.2	0.03	1.3e+06	26.2	0.03	1.2e+06	25.8	0.06	2.3e+06						
extracellular domain of human FcαRI with oligomannosidic N-glycans (from UniProt P24071 22-227) (receptor)													90.7	1.36				
extracellular domain of the human FcαRI with oligomannosidic N-glycans (from UniProt P24071 22-227) (receptor)															1.3	1.3		
extracellular domain of the human FcαRI (CD89) with complex sialylated N-glycans (from UniProt P24071 22-227) (receptor)															1.3	1.3	1	1
extracellular domain of human FcαRI (CD89) with complex sialylated N-glycans (from UniProt P24071 22-227) (receptor)	187	0.07	350000	206	0.06	300000	225	0.06	280000	149	0.07	520000	161	1.33				
